Experiments:
[1] = biological target: T1, recombinant human proprotein convertase subtilisin/kexin 9 (hPCSK9), his-tagged (human, UniProt Q8NBP7 153-692); test: SPR
[2] = biological target: T1, recombinant human proprotein convertase …; test: SPR; remark: listed apart in the source

T1 sequence (Q8NBP7 153-692): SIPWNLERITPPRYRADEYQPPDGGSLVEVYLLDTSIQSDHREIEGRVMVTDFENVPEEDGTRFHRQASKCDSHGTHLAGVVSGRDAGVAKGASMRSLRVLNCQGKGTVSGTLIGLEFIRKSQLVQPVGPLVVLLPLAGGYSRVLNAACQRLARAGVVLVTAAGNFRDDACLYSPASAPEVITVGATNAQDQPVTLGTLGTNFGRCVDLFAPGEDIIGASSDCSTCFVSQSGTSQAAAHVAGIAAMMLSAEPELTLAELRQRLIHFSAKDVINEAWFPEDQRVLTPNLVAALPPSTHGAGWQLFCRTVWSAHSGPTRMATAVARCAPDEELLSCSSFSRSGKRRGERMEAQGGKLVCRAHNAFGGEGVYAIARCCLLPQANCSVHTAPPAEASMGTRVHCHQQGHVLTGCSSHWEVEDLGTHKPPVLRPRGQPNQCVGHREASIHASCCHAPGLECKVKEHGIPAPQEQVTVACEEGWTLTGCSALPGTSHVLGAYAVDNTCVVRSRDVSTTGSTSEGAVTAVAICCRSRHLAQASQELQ

| Binder | koff [1] [s⁻¹] | Kd [2] [nM] |
| --- | --- | --- |
| VHH-B11 (monovalent camelid nanobody against hPCSK9) (VHH) VHH: QVQLQESGGGSVQAGGSLRLSCTVSGYTYSSNCMGWFRQAPGKEHEGVASIYIGGGSTYYADSVKGRFTISQDNAKNTVYLQMNSLKPEDTAMYYCAVGCQGLVDFGYWDQGTQVTVSS | 0.000174 | ~5.01 |
| Llama VHH-human IgG4 hinge linker-IgG4 Fc chimeric HcAb (VHH-B11-Fc) (Fc fusion) QVQLQESGGGSVQAGGSLRLSCTVSGYTYSSNCMGWFRQAPGKEHEGVASIYIGGGSTYYADSVKGRFTISQDNAKNTVYLQMNSLKPEDTAMYYCAVGCQGLVDFGYWDQGTQVTVSS | 0.00123 | 0.689 |

Reference: article PMC9288512 (2022)
